Test results taken from patent US20030119169A1.

Biological target: truncated Mch3α (amino acids 199-303), p12 subunit (human) (UniProt P55210)
Assay: cell-based or functional assay

truncated Mch3α (amino acids 199-303), p12 subunit (human), sequence (P55210 199-303): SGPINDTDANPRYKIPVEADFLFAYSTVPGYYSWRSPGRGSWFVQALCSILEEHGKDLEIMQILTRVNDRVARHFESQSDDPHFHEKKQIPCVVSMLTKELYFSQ

apoptotic Sf9 cells on coexpression (percentage of cells): > 50%
Substance: CPP32-p20 subunit (from UniProt P42574 29-175) (enzyme)
